Here are results for 13 molecules from patent US20240254227A1 (Alector, published 2024).

The target of test [1] is T1, recombinant murine CD300LB overexpressed on BaF/3 cells (mouse, UniProt Q3U497 18-209).
T1 sequence: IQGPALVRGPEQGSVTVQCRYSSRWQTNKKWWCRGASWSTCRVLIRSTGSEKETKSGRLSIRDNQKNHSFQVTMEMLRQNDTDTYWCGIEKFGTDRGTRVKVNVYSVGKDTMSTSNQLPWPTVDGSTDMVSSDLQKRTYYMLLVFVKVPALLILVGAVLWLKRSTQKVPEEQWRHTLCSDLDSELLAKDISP
Kind of test: cell-based or functional assay.

In test [2] the target is T2, recombinant human CD300LB overexpressed on Jurkat cells (human, UniProt A8K4G0 18-201).
T2 construct: also called huCD300LB; huCD300LB-expressing Jurkat cells
T2 sequence: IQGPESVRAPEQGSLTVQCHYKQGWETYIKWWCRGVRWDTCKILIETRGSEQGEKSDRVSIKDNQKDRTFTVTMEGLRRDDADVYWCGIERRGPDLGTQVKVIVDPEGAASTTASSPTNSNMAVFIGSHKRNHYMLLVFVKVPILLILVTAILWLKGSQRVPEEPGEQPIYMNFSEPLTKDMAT
Kind of test: flow cytometry, stable Jurkat cells, supernatant or 10 ug/mL, isotype subtracted. Summed up: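 Jurkat cells stably expressing mouse or human CD300LB, plus parental cells, were dye-barcoded with CFSE and/or VioBlue and pooled at 240,000 cells/well. Hybridoma supernatant or purified antibody at 10 μg/mL was applied for 1 hour, then detected with an APC-labeled anti-human or anti-mouse secondary. APC gMFI on live cells was isotype-subtracted.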

Test [3] addresses T1, recombinant murine CD300LB …. Kind of test: flow cytometry, BaF/3 cells overexpressing muCD300LB. On the procedure:
Purified anti-CD300LB antibodies of the present disclosure were evaluated for their binding affinity to either Jurkat cells overexpressing recombinant huCD300LB or BaF/3 cells overexpressing recombinant muCD300LB. Binding of anti-CD300LB antibodies to the cells was determined as follows. Cells were harvested, washed, and labeled with propidium iodide for viability discrimination. After washing the cells with PBS, 1×10⁵ cells were aliquoted per well in 96-well U-bottom plates and incubated with 100 μL of purified anti-CD300LB antibody at various concentrations in FACS buffer (PBS+2% FBS). After this primary incubation, the supernatant was removed via centrifugation, the cells washed twice with 150 μL of ice-cold FACS buffer, and then incubated with the appropriate secondary antibody on ice for 30 minutes. Following the secondary antibody incubation, the cells were again washed twice with ice-cold FACS buffer and resuspended in a final volume of 200 L FACS buffer. Flow cytometry analysis was then performed using the FACSCanto system (BD Biosciences).

Test [4] deals with T3, murine CD300LB on wild type mouse bone marrow macrophages (mouse, UniProt Q3U497 18-209).
T3 construct: Endogenous receptor on primary cells; also called mCD300LB; Wt BMM
T3 sequence: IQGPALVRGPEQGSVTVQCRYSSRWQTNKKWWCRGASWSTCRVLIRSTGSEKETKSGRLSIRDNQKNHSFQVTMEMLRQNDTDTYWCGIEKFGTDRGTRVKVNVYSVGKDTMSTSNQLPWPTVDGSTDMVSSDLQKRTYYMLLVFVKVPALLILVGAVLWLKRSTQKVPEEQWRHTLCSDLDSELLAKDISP
The test can be described thus: flow cytometry, wild type mouse bone marrow macrophages, 10 ug/mL, isotype subtracted. On the procedure:
To further examine the specificity of the anti-CD300LB antibodies to muCD300LB, bone marrow macrophages (BMM) from wild type (WT) and CD300LB knockout mice (KO) were analyzed for antibody binding by flow cytometry. Bone marrow from these mice was harvested and plated into three 20 cm PETRI dishes in complete media containing 50 ng/mL murine M-CSF (Peprotech). Media was changed every three days until day 6, when cells were harvested. Cells were detached with PBS 3 mM EDTA, washed and counted and plated at 100,000 cells/well in a 96 well plate. Cells were incubated with murine Fc block (Clone 2.4G2, BD) then with 10 μg/mL anti-CD300LB antibodies for 30 minutes on ice. […] Cells were washed twice more with 150 μL FACS buffer then resuspended to 100 μL in FACS buffer analyzed using a BD Canto II flow cytometer to calculate the geometric MFI minus the gMFI of the isotype control. Dead cells were stained with live/dead staining kit (Invitrogen).

B1: anti-CD300LB antibody CD-14 (antibody, V domains shown)
VH: QIQLVQSGPELKKPGETVKISCKASGYTFTDYSLHWVKQTPEKNLKWMAWINTETGAPTYADDFKGRFAFSLETSSNTAYLLINNLKNEDTATYFCALTMVNYWGQGTTLTVSS
VL: DIVMTQSQKFMSTSVGDRVSVTCKASQNVGIRVAWHQQKPGQSPKTLIYSTSYRYSGVPDRFTGSGSGTEFILTISNVQSEDLAEYFCQQYNSYPYTFGGGTKLEIK
Consider B1, for which the “Luminescence in BaF/3” value in test [1] amounted to 19700. Besides, the gMFI stood at 59 gMFI in test [2] and 19400 gMFI in test [3].

B2: anti-CD300LB antibody CD-11 (antibody, V domains shown)
VH: QIQLVQSGPEVKKPGETVKISCKASGYTLTDYSMHWVMQTPGTGLKWMAWMNTETGEPTYADDFKGRFAFSLETSAGTAYLQIDNLKNEDTATYFCATYGKSYGMKYWGQGTSVTVSS
VL: DIVLTQSPPSLAVSLGQRATISCRATKSVSPYLHWYQQTPGQPPKLLIYLASNLDSGVPARFSGSGSGTDFTLNIHPVEEEDAATYYCQHNKELPPTFGGGTRLEIK
Regarding B2, the gMFI in test [4] stood at 349 gMFI; in test [2], 50 gMFI; in test [3], 10900 gMFI. Moreover, in test [1], the “Luminescence in BaF/3” value came to 22400.

B3: anti-CD300LB antibody CD-10 (antibody, V domains shown)
VH: QVQLQQSGPELVRPGVSVKISCKGSGYTFTDYAMHWVKQSHVRSREWIGVIGTYNGHTNYNQKFKGKATMTVDKSSSTAYLELARLTSEDSAIYYCARSGSYYYSMDYWGQGTSVTVSS
VL: QIVLTQSPAIMSASPGEKVTMTCSASSSVNYMHWYQQKSGTSPKRWIYDTSKLSSGVPARFSGSGSGTSYSLTISTMEAEDAATYYCQQWSSNPPMTFGGGTKLEIK
On to B3, for which the gMFI in test [4] was found to be 192 gMFI; in test [2] it was 18 gMFI; in test [3], 6260 gMFI.

B4: anti-CD300LB antibody CD-05 (antibody, V domains shown)
VH: QVQLVQSGAEVKKPGASVKVSCKASGYTFSRYYINWVRQAPGQGLEWMGWINPNSGGTNYAQKFQGRVTMTRDTSTSTVYMELSSLRSEDTAVYYCTTDQLRFGKTGPYYGMDVWGQGTTVTVSS
VL: DIQMTQSPSSLSASVGDRVTITCRASQNIGTYLNWYQQKPGKAPKLLIYAASSLQSGVPSRFSGSGSGTDFTLTISSLQPEDFATYYCQQSYSDTLTFGGGTKVEIK
Regarding B4, the gMFI in test [2] came to 1810 gMFI.

B5: anti-CD300LB antibody CD-06 (antibody, V domains shown)
VH: QVQLVQSGAEVKKPGASVKVSCKASGYTFTTYAVHWVRQAPGQGLEWMGIVNPNSGGTNYAQKFQGRVTMTRDTSTSTVYMELSSLRSEDTAVYYCARDIVPMNNFYNYYYGMDVWGQGTTVTVSS
VL: DIQMTQSPSSLSASVGDRVTITCRASQSISSYLNWYQQKPGKAPKLLIYATSTLQSGVPSRFSGSGSGTDFTLTISSLQPEDFATYYCQQSYRIPYTFGQGTKVEIK
With B5, the gMFI in test [2] worked out at 3180 gMFI.

B6: anti-CD300LB antibody CD-02 (antibody, V domains shown)
VH: QVQLQQPGAELVRPGSSVKLSCQASGYTFTNYWMHWVRQRPIQGLEWIGNIDPSDSETHYNQKFKDRATLTVDKSSSTAYMQLSSLTSEDSAVYYCARSGVYDDEGGDYWGQGTTLTVSS
VL: ENVLTQSPAIMSASPGEKVTMTCSASSSVSYIHWYQQKSSTSPKLWIYDTSKLASGVPGRFSGSGSGNSYSLTISSMETEDVATYYCFQGSGYPLTFGAGTKLELK
Consider B6, for which the gMFI in test [2] worked out at 1130 gMFI.

B7: anti-CD300LB antibody CD-12 (antibody, V domains shown)
VH: QIQLVQSGPELKKPGETVKISCKASGYTFTDYSMHWVRQAPGKGLKWMAWINTETGEATHADDFKGRFDFSLDTSASTAYLQIKNLKNEDTGIYFCVCYGSSYGMDYWGQGTSVTVSS
VL: DIVLTQSPASLPVSLGQRATISCRASKSVRTSGASYMHWYQQKPGQPPKLLIYLASNLKSGVPTRFSGSGSGTDFTLNIHPVEEEDAATYYCQHNREVPPTFGGGTKLEIK
As for B7, the gMFI was 413 gMFI in test [4] and 9800 gMFI in test [3]. Besides, the “Luminescence in BaF/3” value in test [1] came to 22800.

B8: anti-CD300LB antibody CD-16 (antibody, V domains shown)
VH: QIQLVQSGPELKKPGETVKISCKASGYTFTDYSMHWVKQAPGKGLKWMAWINTETGEPTYADDFRGRFAFSLETSGRTAYLEINNLRNEDTATYFCVTYGSSYGMAYWGQGTSVTVSS
VL: DIVLTQSPASLAVSLGQRATISCRASKSVSRSGYSYLHWYQQKPGQPPKLLIYLASKLESGVPARFSGSGSGTDFTLNIHPVEAEDAATYYCQHNREIPPTFGGGTKLEIK
For B8, the gMFI in test [4] turned out to be 233 gMFI; in test [3], 8970 gMFI. In addition, the “Luminescence in BaF/3” value in test [1] is 792.

B9: anti-CD300LB antibody CD-15 (antibody, V domains shown)
VH: QIQLVQSGPELKKPGETVKISCQVSGYTFTDYSMHWLKQAPGKGLKWMAWINTETGESTYTDEFKGRFVFSLETSVRTAYLKINNLKNEDTATYFCGTYGSSYGMAYWGQGTSVTVSS
VL: DIVLTQSPASLPVSLGQRATISCRASKSVSTSGSSYLHWYQQKPGQPPKLLIYLASKLESGVPARFRGSGSGTDFTLNIHPVEEEDAATYYCQHNREVPPTFGGGTKLEIK
In the case of B9, the results for the gMFI in test [4] and in test [3] were 256 gMFI and 8330 gMFI, respectively. Moreover, the “Luminescence in BaF/3” value in test [1] was found to be 23000.

B10: anti-CD300LB antibody CD-13 (antibody, V domains shown)
VH: QIQLVQSGPELKKPGETVKISCKASGYTFTDYSMHWVKQAPGKGFKWMAWINTETGAPTHADDFRGRFAFSLETSASTAFLQISNLKTEDTATYFCVTFGKSYGMNYWGQGTSVTVSS
VL: DIVLTQSPASLSVSLGQRATISCRASKSVGSSGSSYLHWYQQKPGQPPKLLIYLASNLESGVPARFSGSGSGTEFTLNIHPVEEEDAATYYCQHNAEVPPTFGGGTKLEIK
As to B10, the “Luminescence in BaF/3” value in test [1] turned out to be 22400. Besides, the gMFI was 324 gMFI in test [2] and 22100 gMFI in test [3].

B11: anti-CD300LB antibody CD-17 (antibody, V domains shown)
VH: QIQLVQSGPELKKPGETVKISCKASGYTLTDYSMHWVKQAPGKGLKWMGWINTETGEPRYGDDFKGRFAFSLETSASSAYLQINNLKNDDTATYFCATYGRSYGMDFWGQGTSVTVSS
VL: DIVLTQSPASLAVSLGQRATISCRASKSVSPSGHSYMHWYQQKPGQPPKLLIYLASNLKSGVPARFSGSGSGTDFTLNIHPVEEGDAATYYCQHNRELPPTFGGGSKLEIK
As to B11, the gMFI in test [4] came to 1230 gMFI; in test [2], 13 gMFI. Besides, in test [1], the “Luminescence in BaF/3” value is 24700.

B12: anti-CD300LB antibody CD-18 (antibody, V domains shown)
VH: DVQLQESGPDLVKPSQSLSLTCTVTGYSITSGYSWHWIRQFPDNKLEWMGYILSRGDTNFNPSLKSRISITRSTSNNQFFLHFNSVTTEDTATYYCARDFFDYWGQGTTLTVSS
VL: DVLMTQTPLSLPVSLGDQASISCRSSQSIVHSNGNTYLEWYLQKPGQSPKLLIYKVSDRFSGVPDRFSGSGSGTDFTLKISRVEAEDLGVYFCFQGSHVPYTFGGGTKLEIK
Turning to B12, the gMFI was determined as 1290 gMFI in test [4] and 114 gMFI in test [2]. Besides, the “Luminescence in BaF/3” value in test [1] is 13000.

B13: anti-CD300LB antibody CD-01 (antibody, V domains shown)
VH: RVQLQQSGAELVRPGASVTLSCKASGFTFTDFEMHWVKKTPVHGLEWIGAIDPESGNTAYNQKFRGKATLTADKSSSTAYMELRYLTSEDSAVYYCTPLISGADYWGQGTTLTVSS
VL: DVVMTQSPLSLPVSLGDQASISCRSSQSLVHSDGNTYLYWYLQKPGQSPKLLIYKVSNRFSGVPDRFSGSGSGTDFTFKISRVGAEDLGVYFCSQSTHVPWTFGGGTKLEII
In the case of B13, in test [2], the gMFI is 309 gMFI.
